Test results from patent US9637538.

Columns and labels:
[1] = target: HLA class II antigens (HLA-DR, HLA-DQ and HLA-DP); experiment: Luminex dose/response, average over 5 class II bead types, antibody at 2 × 10^-3 µg/ml
[2] = target: HLA class II antigens (HLA-DR, HLA-DQ and HLA-DP); experiment: Luminex, Labscreen Mixed, each of the 5 class II bead types, antibody at 2 µg/ml
[3] = target: HLA class II antigens (HLA-DR, HLA-DQ and HLA-DP); experiment: Luminex dose/response, average over 5 class II bead types, antibody at 3.13 × 10^-2 µg/ml
[4] = target: HLA class II antigens (HLA-DR, HLA-DQ and HLA-DP); experiment: Luminex dose/response, average over 5 class II bead types, antibody at 5 × 10^-4 µg/ml
[5] = target: HLA class II antigens (HLA-DR, HLA-DQ and HLA-DP); experiment: Luminex dose/response, average over 5 class II bead types, antibody at 5 × 10^-1 µg/ml
[6] = target: HLA class II antigens (HLA-DR, HLA-DQ and HLA-DP); experiment: Boltzmann sigmoid fit of the Luminex titration curve; asymptote as the concentration tends to 0
[7] = target: HLA class II antigens (HLA-DR, HLA-DQ and HLA-DP); experiment: Luminex dose/response, average over 5 class II bead types, antibody at 7.8 × 10^-3 µg/ml
[8] = target: HLA class II antigens (HLA-DR, HLA-DQ and HLA-DP); experiment: Luminex dose/response, average over 5 class II bead types, antibody at 1.25 × 10^-1 µg/ml
[9] = target: HLA class II antigens (HLA-DR, HLA-DQ and HLA-DP); experiment: Luminex dose/response, average over 5 class II bead types, antibody at 2 × 10^0 µg/ml
[10] = target: HLA class II antigens (HLA-DR, HLA-DQ and HLA-DP); experiment: Boltzmann sigmoid fit of the Luminex titration curve; concentration at 50% of the specific signal (MAX-MIN)
[11] = target: HLA class II antigens (HLA-DR, HLA-DQ and HLA-DP); experiment: Boltzmann sigmoid fit of the Luminex titration curve; asymptote at infinite concentration

B1: monoclonal chimeric immunoglobulin Hu-IgG1 K [F3.3] (antibody, V domains shown)
VH: EVKLEESGGGLVQPGGSMKLSCVASGFTFSNSWMNWVRQSPEKGLEWVAEIRLKSNNYATRYAESVKGRFTISRDDSKSSVYLQMNNLRSEDTAIYYCTPLSYSFDYWGQGTTVTVST
VL: QIVLTQSPAIMSASPGEKVTMTCSASSIVRYMYWFQQKPGSSPRLLIYDTSSLSSGVPVRFSGSGSGTSYSLTISRMEAEDAATYFCQQWSSYPLTFGGGTKLEIKR
- Average fluorescence intensity (fluorescence intensity) [1]: 1090
- fluorescence (average fluorescence units) [2]: 22000
- Average fluorescence intensity (fluorescence intensity) [3]: 9130
- Average fluorescence intensity (fluorescence intensity) [4]: 316
- Average fluorescence intensity (fluorescence intensity) [5]: 22800
- MIN [6]: 88 fluorescence
- Average fluorescence intensity (fluorescence intensity) [7]: 3520
- Average fluorescence intensity (fluorescence intensity) [8]: 18000
- Average fluorescence intensity (fluorescence intensity) [9]: 23600
- EC50 [10]: 0.05 µg/mL
- MAX [11]: 24600 fluorescence
